Test results from paper PMC6677536 (2019).

Chain of Full-length Nxf2, 3xFLAG-tagged (from UniProt Q9VV73) aa811-814 (UBA mut.1) (Q9VV73 whole entry, change not shown, the tested form may be a part): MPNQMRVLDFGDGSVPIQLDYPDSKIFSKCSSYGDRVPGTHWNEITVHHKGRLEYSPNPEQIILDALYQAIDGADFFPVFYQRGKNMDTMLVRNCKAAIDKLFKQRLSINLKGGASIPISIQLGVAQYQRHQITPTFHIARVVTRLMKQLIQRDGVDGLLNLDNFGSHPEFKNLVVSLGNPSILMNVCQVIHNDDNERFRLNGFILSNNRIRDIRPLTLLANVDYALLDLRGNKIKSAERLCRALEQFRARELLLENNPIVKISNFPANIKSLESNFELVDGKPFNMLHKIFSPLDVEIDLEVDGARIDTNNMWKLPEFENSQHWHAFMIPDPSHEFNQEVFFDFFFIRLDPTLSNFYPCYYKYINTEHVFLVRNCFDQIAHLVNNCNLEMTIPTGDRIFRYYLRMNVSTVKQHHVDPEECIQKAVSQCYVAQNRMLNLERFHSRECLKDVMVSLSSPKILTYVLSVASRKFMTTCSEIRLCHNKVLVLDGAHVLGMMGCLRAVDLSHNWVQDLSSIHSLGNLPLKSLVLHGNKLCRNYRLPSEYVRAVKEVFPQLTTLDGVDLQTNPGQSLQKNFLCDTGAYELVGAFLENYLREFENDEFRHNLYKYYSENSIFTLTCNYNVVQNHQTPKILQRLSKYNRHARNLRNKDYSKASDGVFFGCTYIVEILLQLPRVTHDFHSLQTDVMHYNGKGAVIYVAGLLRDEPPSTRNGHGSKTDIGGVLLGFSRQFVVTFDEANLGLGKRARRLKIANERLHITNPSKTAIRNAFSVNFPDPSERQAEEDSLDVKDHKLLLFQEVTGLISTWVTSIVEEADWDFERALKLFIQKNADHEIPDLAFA
Chain of Full-length Nxf2, 3xFLAG-tagged (from UniProt Q9VV73) aa755-758 (NTF2 mut.3) (Q9VV73 whole entry, change not shown, the tested form may be a part): as above
Chain of Full-length Nxf2, 3xFLAG-tagged (from UniProt Q9VV73) aa754-756 (NTF2 mut.2) (Q9VV73 whole entry, change not shown, the tested form may be a part): as above
Chain of Full-length Nxf2, 3xFLAG-tagged (from UniProt Q9VV73) aa751-754 (NTF2 mut.1) (Q9VV73 whole entry, change not shown, the tested form may be a part): as above
Chain of Full-length Nxf2, 3xFLAG-tagged (from UniProt Q9VV73) aa835-836 (UBA mut.2) (Q9VV73 whole entry, change not shown, the tested form may be a part): as above

What follows are substances tested against Full-length Panx, HA-tagged (UniProt Q9W2H9) (assay: FLAG-tag co-immunoprecipitation, western blot quantification). Conditions: lysates of transfected S2 cells; parent: est. 0; read off a plot.
Chain of Full-length Panx, HA-tagged (Q9W2H9 whole entry, the tested form may be a part): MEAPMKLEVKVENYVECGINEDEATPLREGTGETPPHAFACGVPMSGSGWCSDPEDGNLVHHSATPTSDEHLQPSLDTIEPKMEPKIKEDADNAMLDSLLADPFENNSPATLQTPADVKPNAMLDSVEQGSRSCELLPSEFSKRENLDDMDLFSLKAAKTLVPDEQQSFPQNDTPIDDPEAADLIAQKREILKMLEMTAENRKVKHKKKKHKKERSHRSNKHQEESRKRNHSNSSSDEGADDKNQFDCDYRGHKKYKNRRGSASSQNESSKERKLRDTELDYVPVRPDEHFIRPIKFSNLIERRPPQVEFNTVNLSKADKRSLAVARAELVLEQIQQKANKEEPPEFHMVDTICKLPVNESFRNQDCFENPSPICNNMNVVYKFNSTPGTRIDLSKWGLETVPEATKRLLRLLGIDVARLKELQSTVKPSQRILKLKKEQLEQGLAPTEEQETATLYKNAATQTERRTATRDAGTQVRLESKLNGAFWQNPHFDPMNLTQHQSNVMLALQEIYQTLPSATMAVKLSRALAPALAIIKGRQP
With “Full-length Nxf2, 3xFLAG-tagged (from UniProt Q9VV73) aa835-836 (UBA mut.2)” the log10 ratio (log10 coIP index [arbitrary unit]) was -0.5. In the case of “Full-length Nxf2, 3xFLAG-tagged (from UniProt Q9VV73) aa755-758 (NTF2 mut.3)”, the log10 ratio (log10 coIP index [arbitrary unit]) is reported as -0.3. “Full-length Nxf2, 3xFLAG-tagged (from UniProt Q9VV73) aa754-756 (NTF2 mut.2)” gave a log10 ratio (log10 coIP index [arbitrary unit]) of -0.32. In the case of “Full-length Nxf2, 3xFLAG-tagged (from UniProt Q9VV73) aa811-814 (UBA mut.1)”, the log10 ratio (log10 coIP index [arbitrary unit]) is reported as -1.3. “Full-length Nxf2, 3xFLAG-tagged (from UniProt Q9VV73) aa751-754 (NTF2 mut.1)” was tested, and the log10 ratio (log10 coIP index [arbitrary unit]) was -0.55.
